# Test results from patent US12139520B2 (priority 2020, dated 2024).
# Numbered stars: 1 amine (or outer) side, 2 acyl side, 3 side chain; on linkers, the order of the positions; unused ones are H or OH. Bridge positions count the residues as written; N and C are the ends. Square brackets hold non-standard residues; d marks the D form. Side chains are listed from the residue outwards. Ends that are not written are not given here. * marks the point of attachment. C20 diacid = O=C(O)CCCCCCCCCCCCCCCCCCC(=O)*; γGlu = O=C(O)[C@H](CCC(=O)[*:2])N[*:1]; Hyp = O=C(O)[C@@H]1C[C@@H](O)CN1; Trx = NC[C@H]1CC[C@H](C(=O)O)CC1; AEEA = NCCOCCOCC(=O)O; Aib = CC(C)(N)C(=O)O
# Target: T1, hAMY3R (human, UniProt P30988)
# T1 sequence 1: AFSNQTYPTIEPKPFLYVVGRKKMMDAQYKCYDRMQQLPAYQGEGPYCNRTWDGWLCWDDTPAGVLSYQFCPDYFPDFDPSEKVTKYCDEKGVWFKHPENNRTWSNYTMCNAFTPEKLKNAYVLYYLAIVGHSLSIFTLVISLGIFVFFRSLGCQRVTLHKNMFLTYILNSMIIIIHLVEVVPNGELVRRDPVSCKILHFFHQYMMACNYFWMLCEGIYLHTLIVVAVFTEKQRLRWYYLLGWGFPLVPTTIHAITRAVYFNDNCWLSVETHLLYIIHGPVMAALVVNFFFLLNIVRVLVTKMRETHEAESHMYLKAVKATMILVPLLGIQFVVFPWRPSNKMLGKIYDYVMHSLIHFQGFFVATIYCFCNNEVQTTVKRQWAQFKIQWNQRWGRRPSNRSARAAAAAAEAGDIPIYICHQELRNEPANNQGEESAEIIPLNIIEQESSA
# T1 sequence 2: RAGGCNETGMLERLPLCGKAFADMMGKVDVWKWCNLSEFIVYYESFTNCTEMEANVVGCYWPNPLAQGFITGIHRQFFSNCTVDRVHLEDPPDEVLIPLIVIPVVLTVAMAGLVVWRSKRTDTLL
# Test: cell-based or functional assay
row,hAMY3R EC50 (cAMP) [nM],Binder
1,0.018,{C20 diacid-γGlu}-KCNTATCTVQRLAEQIYQFTAKDKDNVAPPTNVGSNG[Hyp]-NH2 (disulfide 2-7 (inferred); ends not checked) [SEQ ID NO: 106]
2,0.019,{C20 diacid-γGlu}-KCNTATCTVQRLAEQIYQFTDKDKANVAPPTNVGSNG[Hyp]-NH2 (disulfide 2-7 (inferred); ends not checked) [SEQ ID NO: 108]
3,0.019,{C20 diacid-γGlu}-KCNTATCTVARLAHQIAQFTDKDKDNVAPPTNVGSNG[Hyp]-NH2 (disulfide 2-7 (inferred); ends not checked) [SEQ ID NO: 107]
4,0.027,GCRFGTCTVQRLAHQIYQFTDKDKDNVAPRTNVSPQG[Hyp]-NH2 (disulfide 2-7 (inferred); ends not checked) [SEQ ID NO: 125]
5,0.007,{C20 diacid-γGlu}-KCNTATCTVQRLAHQINQFTDKDKDNVAPPTNVGSNG[Hyp]-NH2 (disulfide 2-7 (inferred); ends not checked) [SEQ ID NO: 11]
6,0.022,KCNTATCTVQRLAHQIYQATDKDKDNVAPPTNVGSNG[Hyp]-NH2 (disulfide 2-7 (inferred); ends not checked) [SEQ ID NO: 114]
7,0.024,{C20 diacid-γGlu}-KCNT[Aib]TCTVQRLAHQIYQFTDKDKDNVAPPTNVGSNG[Hyp]-NH2 (disulfide 2-7 (inferred); ends not checked) [SEQ ID NO: 119]
8,0.02,{C20 diacid-γGlu}-KCNTATCTVQRLAHQIEQFTDKDKDNVAPPTNVGSNG[Hyp]-NH2 (disulfide 2-7 (inferred); ends not checked) [SEQ ID NO: 110]
9,0.026,{C20 diacid-γGlu}-KCNTATCTVQRLAEQIYQFTDKAKDNVAPPTNVGSNG[Hyp]-NH2 (disulfide 2-7 (inferred); ends not checked) [SEQ ID NO: 122]
10,0.021,{C20 diacid-γGlu}-KCNTATCTVDRLAHQIAQFTDKDKDNVAPPTNVGSNG[Hyp]-NH2 (disulfide 2-7 (inferred); ends not checked) [SEQ ID NO: 112]
11,0.027,GCRFGTCTVQRLAHQIYQFTDKDKDNVAPRTKIGPNG[Hyp]-NH2 (disulfide 2-7 (inferred); ends not checked) [SEQ ID NO: 124]
12,0.026,GCRTGTCTVQRLAHQIYQFTDKDKDNVAPRSNVGPQG[Hyp]-NH2 (disulfide 2-7 (inferred); ends not checked) [SEQ ID NO: 121]
13,0.018,{C20 diacid-γGlu}-KCNTATCTVQRLAHQIAQFADKDKDNVAPPTNVGSNG[Hyp]-NH2 (disulfide 2-7 (inferred); ends not checked) [SEQ ID NO: 105]
14,0.024,GCRFGTCTVQRLAHFLYQFTDKDKDNVAPRTKVGSNGY [SEQ ID NO: 117]
15,0.028,GCRFGTCTVQRLAHQIYQFTDKDKDNVAPRSKIGPQG[Hyp]-NH2 (disulfide 2-7 (inferred); ends not checked) [SEQ ID NO: 127]
16,0.02,GCRTGTCTVQRLAHQIYQFTDKDKDNVAPRTNVGPQGY [SEQ ID NO: 109]
17,0.024,GCRFGTCTVQRLAHQIYQFTDKDKDNVAPRTNVSPQGY [SEQ ID NO: 116]
18,0.023,GCRTGTCTVQRLAHQIYQFTDKDKDNVAPRTKIGPNG[Hyp]-NH2 (disulfide 2-7 (inferred); ends not checked) [SEQ ID NO: 115]
19,0.007,KCNTATCTVQRLAEQIYQFTDKDKDNK([AEEA-AEEA-γGlu-C20 diacid])APPTNVGSNG[Hyp]-NH2 (disulfide 2-7 (inferred); ends not checked) [SEQ ID NO: 12]
20,0.007,KCNTATCTVQRLAHAIYQFTDKDKDNVAPPTNVGSNG[Hyp]-NH2 (disulfide 2-7 (inferred); ends not checked) [SEQ ID NO: 13]
21,0.022,GCRFGTCTVQRLAHQIYQFTDKDKDNVAPRTKISPNG[Hyp]-NH2 (disulfide 2-7 (inferred); ends not checked) [SEQ ID NO: 113]
22,0.024,GCRTGTCTVQRLAHQIYQFTDKDKDNVAPRTNIGPQG[Hyp]-NH2 (disulfide 2-7 (inferred); ends not checked) [SEQ ID NO: 118]
23,0.025,{C20 diacid-γGlu}-KCNTATCTVQRLAHQIAQFTDKDKDPVAPPTNVGSNS[Hyp]-NH2 (disulfide 2-7 (inferred); ends not checked) [SEQ ID NO: 120]
24,0.027,GCRFGTCTVQRLAHFLYQFTDKDGAIAPRTKIGSQGY [SEQ ID NO: 123]
25,0.027,{C20 diacid-Trx-γGlu-AEEA-AEEA}-KCNTATCTVQRLAEQIYQFTDKDKDNVAPPTNVGSNG[Hyp]-NH2 (disulfide 2-7 (inferred); ends not checked) [SEQ ID NO: 126]
26,0.021,GCRFGTCTVQRLAHQIYQFTDKDKDNVAPRTKIGPQG[Hyp]-NH2 (disulfide 2-7 (inferred); ends not checked) [SEQ ID NO: 111]

# Target: hAM1R (human, UniProt Q16602)
# Test: cell-based or functional assay
row,hAM1R EC50 (cAMP) [nM],Binder
1,> 5000,{C20 diacid-γGlu}-KCNTATCTVQRLAEQIYQFTAKDKDNVAPPTNVGSNG[Hyp]-NH2 (disulfide 2-7 (inferred); ends not checked) [SEQ ID NO: 106]
2,> 5000,{C20 diacid-γGlu}-KCNTATCTVQRLAEQIYQFTDKDKANVAPPTNVGSNG[Hyp]-NH2 (disulfide 2-7 (inferred); ends not checked) [SEQ ID NO: 108]
3,647,{C20 diacid-γGlu}-KCNTATCTVARLAHQIAQFTDKDKDNVAPPTNVGSNG[Hyp]-NH2 (disulfide 2-7 (inferred); ends not checked) [SEQ ID NO: 107]
4,2980,GCRFGTCTVQRLAHQIYQFTDKDKDNVAPRTNVSPQG[Hyp]-NH2 (disulfide 2-7 (inferred); ends not checked) [SEQ ID NO: 125]
5,> 5000,{C20 diacid-γGlu}-KCNTATCTVQRLAHQINQFTDKDKDNVAPPTNVGSNG[Hyp]-NH2 (disulfide 2-7 (inferred); ends not checked) [SEQ ID NO: 11]
6,> 5000,KCNTATCTVQRLAHQIYQATDKDKDNVAPPTNVGSNG[Hyp]-NH2 (disulfide 2-7 (inferred); ends not checked) [SEQ ID NO: 114]
7,> 5000,{C20 diacid-γGlu}-KCNT[Aib]TCTVQRLAHQIYQFTDKDKDNVAPPTNVGSNG[Hyp]-NH2 (disulfide 2-7 (inferred); ends not checked) [SEQ ID NO: 119]
8,> 5000,{C20 diacid-γGlu}-KCNTATCTVQRLAHQIEQFTDKDKDNVAPPTNVGSNG[Hyp]-NH2 (disulfide 2-7 (inferred); ends not checked) [SEQ ID NO: 110]
9,> 5000,{C20 diacid-γGlu}-KCNTATCTVQRLAEQIYQFTDKAKDNVAPPTNVGSNG[Hyp]-NH2 (disulfide 2-7 (inferred); ends not checked) [SEQ ID NO: 122]
10,> 5000,{C20 diacid-γGlu}-KCNTATCTVDRLAHQIAQFTDKDKDNVAPPTNVGSNG[Hyp]-NH2 (disulfide 2-7 (inferred); ends not checked) [SEQ ID NO: 112]
11,34.8,GCRFGTCTVQRLAHQIYQFTDKDKDNVAPRTKIGPNG[Hyp]-NH2 (disulfide 2-7 (inferred); ends not checked) [SEQ ID NO: 124]
12,2980,GCRTGTCTVQRLAHQIYQFTDKDKDNVAPRSNVGPQG[Hyp]-NH2 (disulfide 2-7 (inferred); ends not checked) [SEQ ID NO: 121]
13,> 5000,{C20 diacid-γGlu}-KCNTATCTVQRLAHQIAQFADKDKDNVAPPTNVGSNG[Hyp]-NH2 (disulfide 2-7 (inferred); ends not checked) [SEQ ID NO: 105]
14,51.6,GCRFGTCTVQRLAHFLYQFTDKDKDNVAPRTKVGSNGY [SEQ ID NO: 117]
15,107,GCRFGTCTVQRLAHQIYQFTDKDKDNVAPRSKIGPQG[Hyp]-NH2 (disulfide 2-7 (inferred); ends not checked) [SEQ ID NO: 127]
16,2980,GCRTGTCTVQRLAHQIYQFTDKDKDNVAPRTNVGPQGY [SEQ ID NO: 109]
17,48.2,GCRFGTCTVQRLAHQIYQFTDKDKDNVAPRTNVSPQGY [SEQ ID NO: 116]
18,130,GCRTGTCTVQRLAHQIYQFTDKDKDNVAPRTKIGPNG[Hyp]-NH2 (disulfide 2-7 (inferred); ends not checked) [SEQ ID NO: 115]
19,> 5000,KCNTATCTVQRLAEQIYQFTDKDKDNK([AEEA-AEEA-γGlu-C20 diacid])APPTNVGSNG[Hyp]-NH2 (disulfide 2-7 (inferred); ends not checked) [SEQ ID NO: 12]
20,> 5000,KCNTATCTVQRLAHAIYQFTDKDKDNVAPPTNVGSNG[Hyp]-NH2 (disulfide 2-7 (inferred); ends not checked) [SEQ ID NO: 13]
21,2980,GCRFGTCTVQRLAHQIYQFTDKDKDNVAPRTKISPNG[Hyp]-NH2 (disulfide 2-7 (inferred); ends not checked) [SEQ ID NO: 113]
22,2980,GCRTGTCTVQRLAHQIYQFTDKDKDNVAPRTNIGPQG[Hyp]-NH2 (disulfide 2-7 (inferred); ends not checked) [SEQ ID NO: 118]
23,> 5000,{C20 diacid-γGlu}-KCNTATCTVQRLAHQIAQFTDKDKDPVAPPTNVGSNS[Hyp]-NH2 (disulfide 2-7 (inferred); ends not checked) [SEQ ID NO: 120]
24,31.7,GCRFGTCTVQRLAHFLYQFTDKDGAIAPRTKIGSQGY [SEQ ID NO: 123]
25,> 5000,{C20 diacid-Trx-γGlu-AEEA-AEEA}-KCNTATCTVQRLAEQIYQFTDKDKDNVAPPTNVGSNG[Hyp]-NH2 (disulfide 2-7 (inferred); ends not checked) [SEQ ID NO: 126]
26,2980,GCRFGTCTVQRLAHQIYQFTDKDKDNVAPRTKIGPQG[Hyp]-NH2 (disulfide 2-7 (inferred); ends not checked) [SEQ ID NO: 111]
